Experimental data published in patent US20220233667A1 (OXFORD UNIVERSITY INNOVATION, published 2022).

T1: PfRH5Nt: amino acids F25-K140 of PfRH5 (3D7) with C-terminal CD4d3+4, biotin acceptor peptide and His6 tags (Plasmodium falciparum (3D7))
T1 construct: also called recombinant PfRH5Nt
T1 chain: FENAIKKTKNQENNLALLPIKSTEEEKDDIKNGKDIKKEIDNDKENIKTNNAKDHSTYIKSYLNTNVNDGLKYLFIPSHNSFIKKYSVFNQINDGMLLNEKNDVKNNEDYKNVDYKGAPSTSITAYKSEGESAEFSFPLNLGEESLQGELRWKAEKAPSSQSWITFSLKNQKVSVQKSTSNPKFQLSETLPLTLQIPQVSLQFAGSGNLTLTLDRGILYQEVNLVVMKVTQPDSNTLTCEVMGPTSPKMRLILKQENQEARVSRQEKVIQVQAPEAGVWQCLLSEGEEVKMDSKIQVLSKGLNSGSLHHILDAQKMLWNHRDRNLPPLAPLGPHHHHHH


Target: T1, PfRH5Nt: amino acids F25-K140 of PfRH5 …
Assay: ELISA on coated PfRH5Nt

| Binder | binding result |
| --- | --- |
| R5.010 (antibody, V domains shown, also called mAb10) VH: EVQLVESGGGLVQPGGSLRLSCAASGFTFSSYWMSWVRQAPGKGLEWVANIKQDGSEKYYVDSVKGRFTISGDNAKNSLYLQMNSLRAEDTAVYYCARGASGYYYYNYGMDVWGQGTRVTVSS VL: QPVLTQPPSVSVAPGQTARITCGGNNIGIKSVHWYQQKPGQAPVLVVYDDSDRPSGIPERFSGSNSANTATLTISRVEAGDEADYFCQVWDSSSDHPGVFGGGTKLTVLG | no binding (tested: 1000 ng/mL mAb) |
| R5.016 (antibody, V domains shown, also called mAb16) VH: QVQLVQSGAEVKKPGASVRVSCKASGYTFTSYGISWVRQAPGQGLEWMGWISGYDGNTNYAQKLQGRVTMTTDTSTSTAYMELRSLRSDDTAVYYCARDGPQVGDFDWQVYYYYGMDVWGQGTTVTVSS VL: AIRMTQSPSTLSASVGDRVTITCRASQSINTWLAWYQQKPGKAPNLLISKASSLESGVPSRFSGSGSGTEFTLTISSLQPDDFATYFCQQYNSYLYTFGQGTKVEIRR | no binding (tested: 1000 ng/mL mAb) |
| R5.011 (antibody, V domains shown, also called mAb11) VH: EVQLVQSGSDLKKPGASVKVSCKASGYTFTSYAMNWVRQAPGQGLEWVGWINTNTGNPTYAQGFTGRFVFSLDTSVSTAYLQISSLKAEDTAVYYCARESPNYYDSSGYYSGYYFDYWGQGTLVTVSS VL: SYELTQPPSVSVAPGQTATITCGGKNIGSKSVHWYQQKPGQAPVLVVYDDSDRPSGIPERFSGSNSGNTATLTISRVEAGDEADYYCQVWDSSSDHRVFGGGTKLTVLG | no binding (tested: 1000 ng/mL mAb) |
| R5.014 (antibody, V domains shown, also called mAb14) VH: EVQLVESGGGLVQPGRSLRLSCAASGFTFDDYAMHWVRQAPGKGLEWVSGISWNSASMDYADSVKGRFTISRDNAKNSLYLQMNSLRAEDTALYYCAKDPAPPYCGGDCYPSFDYWGQGTLVTVSS VL: SYELTQPPSMSVAPGKTARITCGGNNIGSKSVHWYQQKPGQAPVLVIYYDSDRPSGIPERFSGSNSGNTATLTISRVEAGDEADYYCQVWDSSRDHVVFGGGTKLTVLG | no binding (tested: 1000 ng/mL mAb) |
